B1: Semaphorin-4C (Mus musculus), Q64151 (parent)
chain: MAPHWAVWLLAAGLWGLGIGAEMWWNLVPRKTVSSGELVTVVRRFSQTGIQDFLTLTLTEHSGLLYVGAREALFAFSVEALELQGAISWEAPAEKKIECTQKGKSNQTECFNFIRFLQPYNSSHLYVCGTYAFQPKCTYINMLTFTLDRAEFEDGKGKCPYDPAKGHTGLLVDGELYSATLNNFLGTEPVILRYMGTHHSIKTEYLAFWLNEPHFVGSAFVPESVGSFTGDDDKIYFFFSERAVEYDCYSEQVVARVARVCKGDMGGARTLQKKWTTFLKARLVCSAPDWKVYFNQLKAVHTLRGASWHNTTFFGVFQARWGDMDLSAVCEYQLEQIQQVFEGPYKEYSEQAQKWARYTDPVPSPRPGSCINNWHRDNGYTSSLELPDNTLNFIKKHPLMEDQVKPRLGRPLLVKKNTNFTHVVADRVPGLDGATYTVLFIGTGDGWLLKAVSLGPWIHMVEELQVFDQEPVESLVLSQSKKVLFAGSRSQLVQLSLADCTKYRFCVDCVLARDPYCAWNVNTSRCVATTSGRSGSFLVQHVANLDTSKMCNQYGIKKVRSIPKNITVVSGTDLVLPCHLSSNLAHAHWTFGSQDLPAEQPGSFLYDTGLQALVVMAAQSRHSGPYRCYSEEQGTRLAAESYLVAVVAGSSVTLEARAPLENLGLVWLAVVALGAVCLVLLLLVLSLRRRLREELEKGAKASERTLVYPLELPKEPASPPFRPGPETDEKLWDPVGYYYSDGSLKIVPGHARCQPGGGPPSPPPGIPGQPLPSPTRLHLGGGRNSNANGYVRLQLGGEDRGGSGHPLPELADELRRKLQQRQPLPDSNPEESSV
partner: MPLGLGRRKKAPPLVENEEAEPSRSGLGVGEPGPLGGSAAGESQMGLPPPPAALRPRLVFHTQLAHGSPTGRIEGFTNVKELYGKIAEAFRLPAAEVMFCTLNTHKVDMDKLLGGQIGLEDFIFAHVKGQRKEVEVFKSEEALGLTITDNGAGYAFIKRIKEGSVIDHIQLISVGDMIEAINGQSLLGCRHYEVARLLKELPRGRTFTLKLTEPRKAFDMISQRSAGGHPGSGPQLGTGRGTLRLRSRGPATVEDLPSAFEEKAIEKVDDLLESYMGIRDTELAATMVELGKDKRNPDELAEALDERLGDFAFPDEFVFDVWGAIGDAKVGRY

Variants of: B1
Details: with gipc1_mouse Gipc1, Q9Z0G0

effect of a mutation on the interaction	Variant
disrupting interaction	S832A
disrupting interaction	S832D

— IntAct's records for PubMed 10318831
